Source: patent publication US20250388623A1, “PEPTIDE INHIBITOR AND USE THEREOF” (CHENGDU BRILLIANT INSPIRATION BIOTHERAPEUTICS CO., LTD, priority 2022, published 2025)

What was measured:
[1] = molecular target: T1, binding of TSP-1 protein to CD36, a TSP-1 receptor protein (Homo sapiens, UniProt P07996); assay: ELISA: blocking of CD36 binding to TSP-1 protein; settings: 100 μM polypeptide, 0.25 μg/mL Fc-tagged CD36, blocking of CD36 binding to TSP-1; for inhibition at 100 µM: 3 h, read-out: Blocking rate (Mean, %)
T1 construct: purchased novoprotein (TSP-1); R&D Systems (Fc-tagged CD36) CU45 (TSP-1); 1955-CD-050 (CD36-Fc)
T1 sequence (P07996 19-1170): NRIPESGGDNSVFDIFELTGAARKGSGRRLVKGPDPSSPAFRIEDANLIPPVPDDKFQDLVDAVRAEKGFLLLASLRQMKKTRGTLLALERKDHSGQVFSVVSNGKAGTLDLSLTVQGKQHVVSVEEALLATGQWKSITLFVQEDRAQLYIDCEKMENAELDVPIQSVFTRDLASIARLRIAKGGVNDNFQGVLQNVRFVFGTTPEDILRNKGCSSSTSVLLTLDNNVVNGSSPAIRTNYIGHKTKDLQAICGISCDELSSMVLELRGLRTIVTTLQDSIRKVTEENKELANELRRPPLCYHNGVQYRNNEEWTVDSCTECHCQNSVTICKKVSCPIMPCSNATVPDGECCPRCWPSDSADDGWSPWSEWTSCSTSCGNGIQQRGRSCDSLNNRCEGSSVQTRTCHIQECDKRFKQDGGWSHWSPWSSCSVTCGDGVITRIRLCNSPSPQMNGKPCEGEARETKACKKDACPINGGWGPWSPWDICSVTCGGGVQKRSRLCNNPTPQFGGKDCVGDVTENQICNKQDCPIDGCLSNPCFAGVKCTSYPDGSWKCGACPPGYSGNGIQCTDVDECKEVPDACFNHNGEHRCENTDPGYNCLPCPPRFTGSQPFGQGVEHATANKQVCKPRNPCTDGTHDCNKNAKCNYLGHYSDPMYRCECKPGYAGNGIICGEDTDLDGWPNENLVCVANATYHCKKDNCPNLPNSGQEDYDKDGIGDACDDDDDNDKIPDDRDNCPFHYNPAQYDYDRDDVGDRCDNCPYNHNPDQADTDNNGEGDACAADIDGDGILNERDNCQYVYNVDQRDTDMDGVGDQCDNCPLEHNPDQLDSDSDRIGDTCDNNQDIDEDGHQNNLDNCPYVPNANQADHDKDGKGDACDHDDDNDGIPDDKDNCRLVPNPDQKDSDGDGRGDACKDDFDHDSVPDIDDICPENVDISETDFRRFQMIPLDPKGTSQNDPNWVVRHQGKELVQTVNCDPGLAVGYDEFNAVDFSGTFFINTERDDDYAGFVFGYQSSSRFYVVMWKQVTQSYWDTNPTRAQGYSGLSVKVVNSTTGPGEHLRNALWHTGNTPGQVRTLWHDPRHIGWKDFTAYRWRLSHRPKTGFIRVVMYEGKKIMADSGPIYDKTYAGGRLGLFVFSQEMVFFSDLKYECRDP
Protocol: ELISA assay was performed to detect the ability of the polypeptides to block the binding of TSP-1 protein to CD36, a TSP-1 receptor protein. TSP-1 protein (novoprotein, Catalog No. CU45) was diluted to 2 μg/mL using 100 mM carbonate buffer and added to sample wells (100 μL/well) of a 96-well ELISA plate (Thermo, Catalog No. 437111), and incubated overnight at 4° C.; after washing the plate twice using 1×PBST wash solution, 200 μL of 1.5% BSA (Sigma, Catalog No. B2064) was added to each well, and incubated at 37° C. for 2 h; after washing the plate 3 times using 1×PBST wash solution, the analytes were added (100 μL/well, 3 replicate wells; for the control group, 0.25 μg/mL of Fc-tagged CD36 protein (R&D Systems, Catalog No. 1955-CD-050); and for the polypeptide-treated groups, a mixture containing Fc-tagged CD36 protein and polypeptide at final concentrations of 0.25 μg/mL and 100 μM, respectively), and incubated at 37° C. for 3 h. After washing the plate 5 times using 1×PBST wash solution, a 1:500 dilution solution of FITC-labeled anti-Fc-tagged antibody (Beyotime, Catalog No. A0556) was added, and incubated for 1 h at 37° C.; after washing the plate 5 times using 1×PBST wash solution, a multifunctional ELISA instrument (TECAN, model: Infinite 200 Pro) was used to detect the intensity of FITC fluorescence signal in each sample well. The ability of the polypeptides to block CD36 binding to TSP-1 protein (Table 2-1) was assessed by calculating the ratio of the fluorescence signal from the polypeptide-treated groups to that of the control group, allowing for the determination of the blocking rate of the polypeptides in inhibiting CD36 binding to TSP-1 protein, i.e., (fluorescence signal of the control group-fluorescence signal of the polypeptide-treated group)/fluorescence signal of the control group×100%. Based on the blocking rate results obtained at the single concentration and on the polypeptide molecule properties, the preferred polypeptide molecules were assayed for concentration dependence (at 0 μM, 0.5 μM, 1 μM, 5 μM, 10 μM, and 100 μM), and IC50 values of the polypeptides for blocking CD36 binding to TSP-1 protein were determined to further assess the abilities of the preferred polypeptide molecules to block the binding of CD36 to TSP-1 (Table 2-2).

active TGF-β = assay: Active TGF-β level in lung tissue, bleomycin (BLM) mouse lung fibrosis model; format: in vivo; settings: single intratracheal dose 3 mg/kg on Day 7, lung 24 h later; BLM model group = 100.00
Description: This Example was to evaluate the inhibitory effect of polypeptides on active TGF-β level during the progression of fibrotic disease. In this Example, a mouse lung fibrosis model induced by bleomycin (BLM) was used. The BLM animal model offers advantages, including a close mimicry of the pathological features of the primary disease, ease of use, and good reproducibility. It is the most representative model for studying the mechanisms of fibrosis and is recommended for evaluating drug efficacy.
In this Example, 6 to 8-week-old male C57/6J mice weighing 18-20 g were used as subjects for the study. The experimental animals were randomized into groups, 8 animals in each group, and the expressions of pro-fibrotic factors were detected at the endpoint of the experiment (Day 8) in this model. In this example, an aerosol intratracheal metered dosing applicator (Yuyan, model YAN30012) was utilized for intratracheal administration during the modeling and drug delivery processes. The dosing was performed as follows (An Official American Thoracic Society Workshop Report: Use of Animal Models for the Preclinical Assessment of Potential Therapies for Pulmonary Fibrosis, Am J Respir Cell Mol Biol Vol 56, Iss 5, pp 667-679, May 2017): The experimental animals were anesthetized with aerosolized isoflurane (RWD, lot no. 22041701) using a small animal anesthesia machine (RWD, model R500IE). Animals in the appropriate anesthetic state were positioned supine with heads facing up and bodies tilted on an operating platform (tilted at approximately) 60°, secured by their incisors. The practitioner gently lifted the tongue with tissue forceps in the right hand, pushing it outward and upward to open the animal's lower jaw. Holding the laryngoscope (Yuyan, model SR310-RW) in the left hand, the practitioner slid its anterior leaf-shaped blade along the midline of the tongue into the oral cavity until reaching the glottis, gently pressing the body and root of the tongue upward. The needle of the drug applicator was then inserted through the mouth into the glottis alongside the laryngoscope, and 50 μL of liquid was quickly injected. On the day of modeling (Day 1), the experimental animals were randomly assigned to groups and administered a 0.7 USP/kg dose of bleomycin solution (HanHui Pharmaceutical, Batch No. 20080511) via the tracheal route to induce the model. On Day 7, each peptide-treated group received a single intratracheal dose of 50 μL peptide drug (at a dosage of 3 mg/kg), while the model group was given an equal volume of solvent (saline, Kelong, Batch No. L221062501) as a control. Twenty-four hours after drug administration, the animals were dissected to collect lung tissue, which was ground in liquid nitrogen to extract total protein from the lung tissue. The active TGF-β content in the lung tissue of mice from each group was measured using the TGF-β ELISA kit (BOSTER, catalog number EK0515). The ratio of active TGF-β content between the peptide-treated group and the model group was calculated to evaluate the effect of the peptide on active TGF-β level.

P-Smad2/3 = P-Smad2/3 content in lung tissue, BLM mouse fibrosis model; format: in vivo; settings: single intratracheal dose 3 mg/kg on Day 7, lung 24 h later; BLM model group = 100.00
Description: This example aimed to evaluate the inhibitory effect of polypeptides on the TGF-β downstream signaling pathway during fibrosis progression. TGF-β intracellular signaling relies on the phosphorylation events of Smad family proteins. The increase in Smad2/3 phosphorylation levels is an important indicator that signal transduction has occurred in the TGF-β signaling pathway.
In this example, 6- to 8-week-old male C57/6J mice weighing 18-20 g were used as subjects for the study. The experimental animals were randomized into groups, eight animals in each group. In this example, intratracheal administration was performed using an aerosol intratracheal metered dosing applicator during both the modeling and drug delivery processes, as described in Example 4. On the day of modeling (Day 1), the experimental animals were randomly assigned to groups and administered a 0.7 USP/kg dose of bleomycin solution (HanHui Pharmaceutical, Batch No. 20080511) via the tracheal route to induce the model. On Day 7, each peptide-treated group received a single intratracheal dose of peptide drug at a dosage of 3 mg/kg, while the BLM model group was given an equal volume of solvent (saline) as a control. Twenty-four hours after drug administration, the animals were dissected, and the lung tissues were collected and frozen in liquid nitrogen for future use. Total protein from the lung tissue was extracted after grinding the tissue in liquid nitrogen, and the total P-Smad2/3 content in the tissue was measured by using P-Smad2/3 ELISA kit (CST, Catalog No. 12001C). The ratio of the P-Smad2/3 content between the peptide-treated group and the model group was calculated to evaluate the effect of the peptide on TGFβ signaling.

Row | Substance | Blocking rate (Mean, %) [1] [%] | inhibition at 100 µM [1] [%] | active TGF-β content in lung tissue, ratio to model group, Mean(%) (active TGF-β) | P-Smad2/3 content in lung tissue, ratio to model group, Mean(%) (P-Smad2/3)
1 | Ac-Gln-Asp-Ala-Glu-Asp-Asn-Thr-Ala-NH2 (Ac-QDAEDNTA-NH2) [SEQ ID NO: 16] | 24.87 |  |  | 
2 | Ac-Gln-Asp-Ala-Glu-Asp-NH2 (Ac-QDAED-NH2) [SEQ ID NO: 02] | 16.39 |  |  | 
3 | Ac-Gln-Asp-Pro-Glu-Asp-NH2 (Ac-QDPED-NH2) [SEQ ID NO: 01] | 17.84 |  |  | 
4 | Ac-QDAEDNTAS-NH2 [SEQ ID NO: 23, Ac-Gln-Asp-Ala-Glu-Asp-Asn-Thr-Ala-Ser-NH2] |  | 22.8 |  | 
5 | Ac-Ser-Gln-Asp-Ala-Glu-Asp-Asn-NH2 (Ac-SQDAEDN-NH2) [SEQ ID NO: 07] | 16.42 |  | 71.66 | 80.71
6 | Ac-Ser-Gln-Asp-Ala-Glu-Asp-Asn-Thr-Val-NH2 (Ac-SQDAEDNTV-NH2) [SEQ ID NO: 18] | 18.79 |  |  | 
7 | Ac-Ser-Gln-Asp-Ala-Glu-Asp-Asn-Thr-Val-Ser-Phe-Leu-Gln-NH2 (Ac-SQDAEDNTVSFLQ-NH2) [SEQ ID NO: 37] | 22.41 |  |  | 
8 | Ac-Ser-Gln-Asp-Ala-Glu-Asp-Asn-Thr-Val-Ser-Phe-NH2 (Ac-SQDAEDNTVSF-NH2) [SEQ ID NO: 28] | 21.71 |  |  | 
9 | Ac-TQDAEDNT-NH2 [SEQ ID NO: 15, Ac-Thr-Gln-Asp-Ala-Glu-Asp-Asn-Thr-NH2] |  | 30.6 |  | 
10 | Ac-TQDAEDNTQD-NH2 [SEQ ID NO: 49, Ac-Thr-Gln-Asp-Ala-Glu-Asp-Asn-Thr-Gln-Asp-NH2] |  | 30.2 | 82.64 | 91.98
11 | Ac-TQDPAEDN-NH2 [SEQ ID NO: 48, Ac-Thr-Gln-Asp-Pro-Ala-Glu-Asp-Asn-NH2] |  | 29.7 | 82.97 | 80.57
12 | Ac-Thr-Asn-Asp-Ala-Glu-Asp-Asn-NH2 (Ac-TNDAEDN-NH2) [SEQ ID NO: 08] | 16.70 |  | 80.31 | 83.02
13 | Ac-Thr-Asn-Asp-Ala-Glu-Asp-Asn-Thr-Val-NH2 (Ac-TNDAEDNTV-NH2) [SEQ ID NO: 19] | 16.86 |  |  | 
14 | Ac-Thr-Gln-Asp-Ala-Glu-Asp-Asn-Thr-Ala-Ser-His-Leu-NH2 (Ac-TQDAEDNTASHL-NH2) [SEQ ID NO: 35] | 21.58 |  |  | 
15 | Ac-Thr-Gln-Asp-Ala-Glu-Asp-Asn-Thr-Ala-Ser-Phe-NH2 (Ac-TQDAEDNTASF-NH2) [SEQ ID NO: 31] | 18.44 |  | 83.22 | 90.02
16 | Ac-Thr-Gln-Asp-Ala-Glu-Asp-Asn-Thr-Ala-Ser-Trp-NH2 (Ac-TQDAEDNTASW-NH2) [SEQ ID NO: 34] | 20.44 |  |  | 
17 | Ac-Thr-Gln-Asp-Ala-Glu-Asp-Asn-Thr-Ala-Ser-Tyr-NH2 (Ac-TQDAEDNTASY-NH2) [SEQ ID NO: 32] | 21.45 |  |  | 
18 | Ac-Thr-Gln-Asp-Ala-Glu-Asp-Asn-Thr-Val-NH2 (Ac-TQDAEDNTV-NH2) [SEQ ID NO: 17] | 29.16 |  | 71.36 | 74.12
19 | Ac-Thr-Gln-Asp-Ala-Glu-Asp-Asn-Thr-Val-Ser-Phe-NH2 (Ac-TQDAEDNTVSF-NH2) [SEQ ID NO: 27] | 25.53 |  | 89.89 | 88.69
20 | Ac-Thr-Gln-Asp-Ala-Glu-Asp-Pro-NH2 (Ac-TQDAEDP-NH2) [SEQ ID NO: 13] | 16.56 |  |  | 
21 | Ac-Thr-Gln-Asp-Pro-Glu-Asp-Asn-Thr-Val-NH2 (Ac-TQDPEDNTV-NH2) [SEQ ID NO: 20] | 26.03 |  |  | 
22 | Ac-Thr-Gln-Asp-Pro-Glu-Asp-Asn-Thr-Val-Ser-Phe-Leu-Gln-NH2 (Ac-TQDPEDNTVSFLQ-NH2) [SEQ ID NO: 39] | 22.29 |  |  | 
23 | Ac-Thr-Gln-Asp-Pro-Glu-Asp-Asn-Thr-Val-Ser-Phe-NH2 (Ac-TQDPEDNTVSF-NH2) [SEQ ID NO: 30] | 22.45 |  |  | 
24 | Ac-Thr-Gln-Asp-Pro-Glu-Asp-NH2 (Ac-TQDPED-NH2) [SEQ ID NO: 03] | 16.02 |  |  | 
25 | Ac-Thr-Gln-Asp-Ser-Glu-Asp-Asn-NH2 (Ac-TQDSEDN-NH2) [SEQ ID NO: 11] | 15.19 |  |  | 
26 | Ac-Thr-Gln-Asp-Ser-Glu-Asp-Asn-Thr-Val-NH2 (Ac-TQDSEDNTV-NH2) [SEQ ID NO: 21] | 15.63 |  |  | 
27 | Ac-Thr-Glu-Asp-Ala-Glu-Asp-Asn-Thr-Val-Ser-Phe-NH2 (Ac-TEDAEDNTVSF-NH2) [SEQ ID NO: 29] | 25.05 |  |  | 
28 | Ac-Thr-Ser-Asp-Ala-Glu-Asp-Asn-NH2 (Ac-TSDAEDN-NH2) [SEQ ID NO: 10] | 14.54 |  |  | 
29 | Ac-Thr-Ser-Asp-Ala-Glu-Asp-Asn-Thr-Val-Ser-Phe-Leu-Gln-NH2 (Ac-TSDAEDNTVSFLQ-NH2) [SEQ ID NO: 38] | 20.22 |  |  | 
